What was measured:
Type in all cases: cell-based
[1] = system: primary rabbit corneal epithelial cells; experiment: single cell clonal growth assay (colony formation, clonal proliferation); conditions: 250 ng/ml
Excerpt: In order to evaluate the effect of GDNF on corneal proliferation, recombinant human GDNF was used (R&D, Minneapolis, Minn., USA). For the evaluation of the effect on corneal epithelial proliferaton a single cell clonal growth model was utilized which allows to determine the effect of the given growth factor on both colony formation as well as clonal expansion (Kruse et al., 1991). New Zealand white rabbits were housed and treated according to the ARVO Resolution of Animals in Research and under observation of German Federal Laws and the laws of the State of Baden-Württemberg. Prior to sacrifice with an intravenous overdose of pentobarbital, they received an intramuscular injection of xylazine hydrochloride and ketamine hydrochloride. The details of the clonal growth assay are described in Kruse et al. (1991). 5000 viable cells were seeded in each 16 mm dish in serum-free medium MCDB 151 with a supplement (S) of insulin (5 μg/ml), transferrin (5 μg/ml), selenium (5 ng/ml) and hydrocortisone (5 μg/ml) (all from Sigma, Deisenhofen, Germany). […] This quantification was facilitated by the use of dishes which contained a grit on the bottom which is roughly 2 mm wide (from Sarstedt, Newton, N.C., USA). For data collection the entire surface area of four randomly selected dishes for each condition was screened. Furthermore, the number of cells per colony was determined in 75 randomly selected colonies for each condition. Furthermore, the total number of cells/dish was calculated in order to carry out an evaluation for artemin. In order to stimulate the cellular proliferation, GDNF (50 or 200 ng/ml) or artemin (250 ng/ml) was added to the medium. In order to estimate the rate of proliferation after 12 days (a time when neighbouring colonies started to grow into each other and, therefore, prevented numerical quantification) dishes were fixed in −20° C. methanol and stained with methylene blue.
All experiments examining the effect of GDNF on corneal proliferation were performed in triplicate with cells from different donors. The influence of growth factor on colony formation, colony size and cell number was studied using one-way analysis of variance. […] Student's t-test was employed to determine which differences were significant after analysis of variance.

[2] = system: primary rabbit corneal epithelial cells; experiment: in vitro wound healing assay (scratch wound), artemin; conditions: 100 ng/ml; within 6 h; control about 20%
Method: For in vitro wound healing assays primary corneal epithelial cells and cells from the corneal epithelial cell line were seeded at a density of 5×10^5 onto 60 mm plastic dishes with 2 mm grid (Sarstedt, Numbrecht, Germany) and cultured for 2 days until subconfluency. For experiments with artemin primary cultured rabbit corneal epithelial cells were used. These cells had been isolated with Dispase (1,2 U/ml) and trypsin/EDTA. Rabbit cells had been cultured in medium 500 with additives (Cascade Biologies).
The cell layer was injured under the microscope by inducing several parallel scratches with a soft plastic cell scrubber (Falcon, Becton and Dickinson, Heidelberg, Germany). The tip of the scrubber was cut and measured about 1 mm and consequently the width of the scratch in the cell layer was also about 1 mm. Selected areas in the dishes were marked with a very fine marker pen and consecutive images were taken at different time points at 5×magnification under an inverted phase contrast microscope (Axiovert 25, Zeiss, Jena, Germany) equipped with a video camera. […] For each condition four representative areas were evaluated within three dishes. […] 18 hours later the mean diameter of the same scratch was calculated again and expressed in percent of the diameter at the beginning of the experiment.

[3] = system: FAK, Pyk2, cRaf, MEK1, Erk 1 and 2, Elk, RSK; experiment: western blot of phosphorylated intracellular signaling proteins in corneal epithelial cells; conditions: 250 ng/ml artemin for 10, 20, 40 and 60 minutes; human corneal epithelial cells

B1: artemin: GDNF family member, also referred to as enovin or neublastin (SEQ ID NO 5) (protein)
chain: CRLRSQLVPVRALGLGHRSDELVRFRFCSGSCRRARSPHDLSLASLLGAGALRPPPGSRPVSQPCCRPTRYEAVSFMDVNSTWRTVDRLSATACGC
modifications: artemin
[1]; control 200±98 cells, p<0.001
  total number of cells per dish: significantly increased
[1]; day 6, control 40±20
  total number of colonies: 79±38
[2]
  gap in the cell monolayer filled: 29±8%
[3]
  phosphorylated Erk 1 and 2: gradually increased
  phosphorylated MEK: increasing amount
